{"source": "patent US7807363B2", "about": "“Superoxide dismutase-2 expression for glaucoma diagnosis” (Alcon Research, Ltd., priority 2006, dated 2010)", "molecules": {"B1": {"name": "serum amyloid A (protein, UniProt P0DJI8 19-122, looked up)", "Serum amyloid A-1 protein": "RSFFSFLGEAFDGARDMWRAYSDMREANYIGSDKYFHARGNYDAAKRGPGGAWAAEVITDARENIQRFFGHGAEDSLADQAANEWGRSGKDPNHFRPAGLPEKY", "notes": "acute-phase reactant protein; recombinant human SAA used to induce SOD-2 overexpression in TM cells"}}, "tested_on": "SOD-2 mRNA in NTM-115 cells", "assay": "RT-qPCR of SOD-2 mRNA in NTM-115 TM cells treated with SAA", "assay_type": "cell-based", "conditions": "rhSAA 40 ug/ml, 24 hr, compared to untreated cells, FIG. 4", "experimental": "SOD-2 mRNA levels in FIG. 1 were measured using real-time quantitative PCR (RT-qPCR). In the RT-qPCR protocol used in one embodiment of the present invention, total RNA was extracted from cultured TM cells or from RNAlater-preserved ocular tissues by using a commercial kit of RNAqueous-4 PCR (Ambion, Austin, Tex.) according to the manufacturer's instructions. RNA quality was assessed by agarose gel electrophoresis or with a 2100 Bioanalyer (Agilent). cDNA was synthesized using MultiScribe reverse transcriptase and random hexamers (PE Applied Biosystems, Foster City, Calif.). Real-time PCR was performed using the ABI Prism 7700 Sequence Detection System according to the manufacturer's instructions (Applied Biosystems, Foster City, Calif.). […] Relative RNA concentrations were determined by comparison to a standard curve generated by different dilutions of TM cell cDNA. […]\nIn this embodiment, a TM cell line is treated with SAA, which causes overexpression of SOD-2. After addition of the test compound or appropriate vehicle control, the levels of SOD-2 are measured in the test and control replicates via qPCR using the protocol given in the description accompanying FIG. 1. […]"}
{"molecule": "B1", "values": [{"measurement": "SOD-2 mRNA levels", "result": "increased levels of SOD-2 mRNA"}]}
